Tests used:
[1] = qRT-PCR of TuMV (+) and (-) RNA, N. benthamiana; details: glycan lost; control: AtVSR4-myc co-expression
[2] = immunoblot of TuMV CP, N. benthamiana; details: glycan lost; control: AtVSR4-myc co-expression
[3] = confocal counting of punctate bodies, 2 dpai; details: glycan lost; control: AtVSR4-myc co-expression
[4] = immunoblot with TBSV P19 co-expression, 2 dpai; details: glycan lost; control: AtVSR4 wild type with P19
[5] = GFP fluorescence under UV, N. benthamiana, 3 dpai; details: glycan lost; control: AtVSR4-myc co-expression
[6] = qRT-PCR of TuMV RNA, transgenic Arabidopsis, 16 dpi; details: glycan lost; control: AtVSR4oe transgenic Arabidopsis
[7] = symptom observation, 16 dpi; details: glycan lost; control: AtVSR4oe transgenic Arabidopsis
[8] = anti-myc immunoblot, N. benthamiana, 2 dpai; details: glycan lost; control: AtVSR4-myc wild type

B1: AtVSR4 (vacuolar sorting receptor 4): AtVSR4TM (protein)
parent chain: MKQLLCYLPWLLLLSLVVSPFNEARFVVEKNSLSVTSPESIKGTHDSAIGNFGIPQYGGSMAGTVVYPKENQKSCKEFSDFSISFKSQPGALPTFLLVDRGDCFFALKVWNAQKAGASAVLVADNVDEPLITMDTPEEDVSSAKYIENITIPSALVTKGFGEKLKKAISGGDMVNLNLDWREAVPHPDDRVEYELWTNSNDECGVKCDMLMEFVKDFKGAAQILEKGGFTQFRPHYITWYCPHAFTLSRQCKSQCINKGRYCAPDPEQDFSSGYDGKDVVVENLRQLCVYKVANETGKPWVWWDYVTDFQIRCPMKEKKYNKDCAESVIKSLGIDSRKIDKCMGDPDADLDNPVLKEEQDAQVGKGTRGDVTILPTLVVNNRQYRGKLEKSAVLKALCSGFEESTEPAICLSTDMETNECLDNNGGCWQDKSANITACKDTFRGKVCVCPIVDGVRFKGDGYSHCEPSGPGRCTINNGGCWHEERDGHAFSACVDKDSVKCECPPGFKGDGVKKCEDINECKEKKACQCPECSCKNTWGSYECSCSGDLLYMRDHDTCISKTGSQVKSAWAAVWLIMLSLGLAAAGAYLVYKYRLRQYMDSEIRAIMAQYMPLDSQPEVPNHTNDERA
[1]
  other: viral replication, fold_change: increases
[2]
  other: viral replication, fold_change: increases
[3]
  other: formation of 6K2 punctate bodies: increases
[4]
  expression_or_secretion: decreases
[5]
  other: viral replication: increases

B2: AtVSR4 (vacuolar sorting receptor 4): AtVSR4TMoe (protein)
parent chain: MKQLLCYLPWLLLLSLVVSPFNEARFVVEKNSLSVTSPESIKGTHDSAIGNFGIPQYGGSMAGTVVYPKENQKSCKEFSDFSISFKSQPGALPTFLLVDRGDCFFALKVWNAQKAGASAVLVADNVDEPLITMDTPEEDVSSAKYIENITIPSALVTKGFGEKLKKAISGGDMVNLNLDWREAVPHPDDRVEYELWTNSNDECGVKCDMLMEFVKDFKGAAQILEKGGFTQFRPHYITWYCPHAFTLSRQCKSQCINKGRYCAPDPEQDFSSGYDGKDVVVENLRQLCVYKVANETGKPWVWWDYVTDFQIRCPMKEKKYNKDCAESVIKSLGIDSRKIDKCMGDPDADLDNPVLKEEQDAQVGKGTRGDVTILPTLVVNNRQYRGKLEKSAVLKALCSGFEESTEPAICLSTDMETNECLDNNGGCWQDKSANITACKDTFRGKVCVCPIVDGVRFKGDGYSHCEPSGPGRCTINNGGCWHEERDGHAFSACVDKDSVKCECPPGFKGDGVKKCEDINECKEKKACQCPECSCKNTWGSYECSCSGDLLYMRDHDTCISKTGSQVKSAWAAVWLIMLSLGLAAAGAYLVYKYRLRQYMDSEIRAIMAQYMPLDSQPEVPNHTNDERA
[6]
  other: viral replication: increases
[7]
  other: viral symptom severity in plants: increases

B3: AtVSR4 (vacuolar sorting receptor 4): AtVSR4TM-myc (protein)
parent chain: MKQLLCYLPWLLLLSLVVSPFNEARFVVEKNSLSVTSPESIKGTHDSAIGNFGIPQYGGSMAGTVVYPKENQKSCKEFSDFSISFKSQPGALPTFLLVDRGDCFFALKVWNAQKAGASAVLVADNVDEPLITMDTPEEDVSSAKYIENITIPSALVTKGFGEKLKKAISGGDMVNLNLDWREAVPHPDDRVEYELWTNSNDECGVKCDMLMEFVKDFKGAAQILEKGGFTQFRPHYITWYCPHAFTLSRQCKSQCINKGRYCAPDPEQDFSSGYDGKDVVVENLRQLCVYKVANETGKPWVWWDYVTDFQIRCPMKEKKYNKDCAESVIKSLGIDSRKIDKCMGDPDADLDNPVLKEEQDAQVGKGTRGDVTILPTLVVNNRQYRGKLEKSAVLKALCSGFEESTEPAICLSTDMETNECLDNNGGCWQDKSANITACKDTFRGKVCVCPIVDGVRFKGDGYSHCEPSGPGRCTINNGGCWHEERDGHAFSACVDKDSVKCECPPGFKGDGVKKCEDINECKEKKACQCPECSCKNTWGSYECSCSGDLLYMRDHDTCISKTGSQVKSAWAAVWLIMLSLGLAAAGAYLVYKYRLRQYMDSEIRAIMAQYMPLDSQPEVPNHTNDERA
[8]
  expression_or_secretion: decreases
